Assay results as given in patent publication US20190112392A1.

Target: soluble recombinant cynomolgus TCR alpha/beta-zipper protein (cynomolgus/rhesus monkey)
Test: ELISA, 2 µg/mL coated soluble recombinant cynomolgus TCR α/β-zipper protein, OD 450 nm

Chain of soluble recombinant cynomolgus TCR alpha/beta-zipper protein (cynomolgus/rhesus monkey) (TCR alpha, as listed by the source, chain 1 of 2): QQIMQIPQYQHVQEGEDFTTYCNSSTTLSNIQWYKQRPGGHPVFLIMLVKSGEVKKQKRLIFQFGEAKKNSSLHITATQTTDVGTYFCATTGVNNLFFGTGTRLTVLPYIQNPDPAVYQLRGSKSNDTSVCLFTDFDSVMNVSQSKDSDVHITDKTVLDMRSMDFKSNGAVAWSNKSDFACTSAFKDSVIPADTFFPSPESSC
Chain of soluble recombinant cynomolgus TCR alpha/beta-zipper protein (cynomolgus/rhesus monkey) (TCR beta, as listed by the source, chain 2 of 2): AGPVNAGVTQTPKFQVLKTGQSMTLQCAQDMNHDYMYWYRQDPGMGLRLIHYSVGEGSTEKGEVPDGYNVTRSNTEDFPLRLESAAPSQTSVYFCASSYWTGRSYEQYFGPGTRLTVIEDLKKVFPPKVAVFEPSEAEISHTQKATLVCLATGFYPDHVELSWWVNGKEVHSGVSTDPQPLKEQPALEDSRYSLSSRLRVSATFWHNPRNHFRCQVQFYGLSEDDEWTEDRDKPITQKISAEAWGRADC

EC50 (read off the curve): 0.1 nM
Substance: anti-non-human primate/Rat TCRα/β antibody clone R73
